Results: patent publication US20240034757A1 (OXFORD UNIVERSITY INNOVATION, published 2024)
Substitutions are numbered along the chain they refer to. Names and notes keep the numbering of the source.

Key:
CCL22_HUMAN = target: T1, CCL22_HUMAN (human, UniProt O00626 25-93); experiment: BLI
T1 sequence: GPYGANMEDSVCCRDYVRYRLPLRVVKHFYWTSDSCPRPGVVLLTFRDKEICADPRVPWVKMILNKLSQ

CCL3L1_HUMAN [1] = target: T2, CCL3L1_HUMAN (human, UniProt P16619 24-93); experiment: BLI
T2 sequence: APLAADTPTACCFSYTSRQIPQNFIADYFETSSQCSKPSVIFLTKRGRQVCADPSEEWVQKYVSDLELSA

CCL14_HUMAN = target: T3, CCL14_HUMAN (human, UniProt Q16627 22-93); experiment: BLI
T3 sequence: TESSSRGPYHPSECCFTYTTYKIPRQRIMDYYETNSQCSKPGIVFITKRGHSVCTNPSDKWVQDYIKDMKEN

CCL4_HUMAN = target: T4, CCL4_HUMAN (human, UniProt P13236 24-92); experiment: BLI
T4 sequence: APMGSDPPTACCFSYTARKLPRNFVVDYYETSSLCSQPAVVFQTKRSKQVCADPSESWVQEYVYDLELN

CCL20_HUMAN = CCL20_HUMAN (human, UniProt P78556 27-96); experiment: BLI
Chain of CCL20_HUMAN (P78556 27-96 limits assumed): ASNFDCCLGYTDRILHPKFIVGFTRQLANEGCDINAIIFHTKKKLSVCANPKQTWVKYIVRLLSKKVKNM

CCL4L1_HUMAN = target: T5, CCL4L1_HUMAN (human, UniProt Q8NHW4 24-92); experiment: BLI
T5 sequence: T4 sequence with S47G

CCL16_HUMAN = target: T6, CCL16_HUMAN (human, UniProt O15467 24-120); experiment: BLI
T6 sequence: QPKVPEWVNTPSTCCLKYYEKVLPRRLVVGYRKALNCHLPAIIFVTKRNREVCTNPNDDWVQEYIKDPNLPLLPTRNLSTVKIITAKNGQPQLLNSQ

CCL11_HUMAN = CCL11_HUMAN (human, UniProt P51671 24-97); experiment: BLI
Chain of CCL11_HUMAN (P51671 24-97 limits assumed): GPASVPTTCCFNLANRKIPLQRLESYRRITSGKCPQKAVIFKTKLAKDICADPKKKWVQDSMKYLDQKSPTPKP

CCL17_HUMAN = target: T7, CCL17_HUMAN (human, UniProt Q92583 24-94); experiment: BLI
T7 sequence: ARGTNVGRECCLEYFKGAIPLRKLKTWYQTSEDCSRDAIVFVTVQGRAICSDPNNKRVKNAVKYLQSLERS

CCL2_HUMAN [2] = target: T8, CCL2_HUMAN (human, UniProt P13500 24-99); experiment: BLI
T8 sequence (P13500 24-99 limits assumed): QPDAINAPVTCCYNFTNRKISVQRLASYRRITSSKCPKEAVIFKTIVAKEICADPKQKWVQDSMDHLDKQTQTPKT

CCL8_HUMAN [3] = target: T9, CCL8_HUMAN (human, UniProt P80075 24-99); experiment: BLI
T9 sequence (looked up): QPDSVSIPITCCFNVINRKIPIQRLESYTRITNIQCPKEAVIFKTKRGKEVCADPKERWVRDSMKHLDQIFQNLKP

CCL23_HUMAN = target: T10, CCL23_HUMAN (human, UniProt P55773 22-120); experiment: BLI
T10 sequence: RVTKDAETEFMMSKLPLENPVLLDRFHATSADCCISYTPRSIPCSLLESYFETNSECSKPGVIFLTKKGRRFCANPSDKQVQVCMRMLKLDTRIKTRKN

CCL21_HUMAN = target: T11, CCL21_HUMAN (human, UniProt O00585 24-134); experiment: BLI
T11 sequence: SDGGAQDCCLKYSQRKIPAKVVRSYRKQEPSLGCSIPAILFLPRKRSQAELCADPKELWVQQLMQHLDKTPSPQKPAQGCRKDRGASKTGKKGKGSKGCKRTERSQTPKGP

CCL1_HUMAN = target: T12, CCL1_HUMAN (human, UniProt P22362 24-96); experiment: BLI
T12 sequence: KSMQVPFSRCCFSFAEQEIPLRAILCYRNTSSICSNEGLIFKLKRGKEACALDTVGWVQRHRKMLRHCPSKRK

CCL19_HUMAN = target: T13, CCL19_HUMAN (human, UniProt Q99731 22-98); experiment: BLI
T13 sequence: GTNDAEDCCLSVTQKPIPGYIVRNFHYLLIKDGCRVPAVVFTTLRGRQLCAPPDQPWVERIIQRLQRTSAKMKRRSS

CCL13_HUMAN = CCL13_HUMAN (human, UniProt Q99616 24-98); experiment: BLI
Chain of CCL13_HUMAN (Q99616 24-98 limits assumed): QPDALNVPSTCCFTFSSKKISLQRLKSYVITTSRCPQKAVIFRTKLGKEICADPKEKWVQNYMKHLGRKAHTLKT

CCL27_HUMAN = target: T14, CCL27_HUMAN (human, UniProt Q9Y4X3 25-112); experiment: BLI
T14 sequence: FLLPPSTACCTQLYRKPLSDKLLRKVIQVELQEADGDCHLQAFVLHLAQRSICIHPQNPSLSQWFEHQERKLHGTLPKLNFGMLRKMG

CCL3_HUMAN [4] = target: T15, CCL3_HUMAN (human, UniProt P10147 24-92); experiment: BLI
T15 sequence: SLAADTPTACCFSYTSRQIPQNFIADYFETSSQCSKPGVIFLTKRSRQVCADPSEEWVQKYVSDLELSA

CCL5_HUMAN [5] = target: T16, CCL5_HUMAN (human, UniProt P13501 24-91); experiment: BLI
T16 sequence: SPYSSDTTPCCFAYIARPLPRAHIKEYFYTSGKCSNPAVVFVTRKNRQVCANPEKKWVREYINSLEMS

CCL18_HUMAN = target: T17, CCL18_HUMAN (human, UniProt P55774 21-89); experiment: BLI
T17 sequence: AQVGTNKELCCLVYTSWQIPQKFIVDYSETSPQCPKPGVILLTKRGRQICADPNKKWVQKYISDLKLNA

CCL7_HUMAN [6] = target: T18, CCL7_HUMAN (human, UniProt P80098 24-99); experiment: BLI
T18 sequence (P80098 24-99 limits assumed): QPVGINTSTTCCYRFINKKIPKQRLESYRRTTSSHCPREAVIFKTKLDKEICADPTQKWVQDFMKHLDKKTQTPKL

CCL15_HUMAN = target: T19, CCL15_HUMAN (human, UniProt Q16663 22-113); experiment: BLI
T19 sequence: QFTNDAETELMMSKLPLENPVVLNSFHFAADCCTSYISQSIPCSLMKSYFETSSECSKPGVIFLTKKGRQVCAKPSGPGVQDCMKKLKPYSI

CCL24_HUMAN = target: T20, CCL24_HUMAN (human, UniProt O00175 27-104); experiment: BLI
T20 sequence: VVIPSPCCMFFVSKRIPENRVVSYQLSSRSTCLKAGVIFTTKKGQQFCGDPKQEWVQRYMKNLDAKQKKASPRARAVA

CCL3L1_HUMAN [7] = target: T2, CCL3L1_HUMAN; experiment: cell-based or functional assay
CCL2_HUMAN [8] = target: T8, CCL2_HUMAN; experiment: cell-based or functional assay
CCL8_HUMAN [9] = target: T9, CCL8_HUMAN; experiment: cell-based or functional assay
CCL3_HUMAN [10] = target: T15, CCL3_HUMAN; experiment: cell-based or functional assay
CCL5_HUMAN [11] = target: T16, CCL5_HUMAN; experiment: cell-based or functional assay
CCL7_HUMAN [12] = target: T18, CCL7_HUMAN; experiment: cell-based or functional assay
CCL5_HUMAN [13] = target: T16, CCL5_HUMAN; experiment: BLI, evasin on nickel sensor
CXCL8_HUMAN = target: T21, CXCL8_HUMAN (human, UniProt P10145 28-99); experiment: BLI, sensor already loaded with CCL5
T21 sequence: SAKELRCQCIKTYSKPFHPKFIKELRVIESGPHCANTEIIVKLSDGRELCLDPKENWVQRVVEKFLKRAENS

CXCL1_HUMAN = target: T22, CXCL1_HUMAN (human, UniProt P09341 35-107); experiment: BLI, sensor already loaded with CCL5
T22 sequence: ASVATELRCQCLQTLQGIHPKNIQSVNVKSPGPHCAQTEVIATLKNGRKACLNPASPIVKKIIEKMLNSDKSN

B1: P991_AMBCA (other)
chain: ENGEGTTQPDYDNSTDYYNYEDFKCTCPAPHLNNTNGTVMKPIGCYYTCNVTRCTAPDTYPCYNLTEHQAKNLTTSPTTLCAVGNCDHGICVPNGTKELCFKAPNLEE
CCL22_HUMAN
  RT: 16.8 min
CCL3L1_HUMAN [1]
  RT: 52 min
CCL14_HUMAN
  RT: 192 min
CCL4_HUMAN
  RT: 32.2 min
CCL20_HUMAN
  RT: 7.03 min
CCL4L1_HUMAN
  RT: 42.8 min
CCL16_HUMAN
  RT: 102 min
CCL11_HUMAN
  RT: 24.9 min
CCL17_HUMAN
  RT: 10.3 min
CCL2_HUMAN [2]
  RT: 4.17 min
CCL8_HUMAN [3]
  RT: 10.8 min
CCL23_HUMAN
  RT: 32.3 min
CCL21_HUMAN
  RT: 12.1 min
CCL1_HUMAN
  RT: 5.37 min
CCL19_HUMAN
  RT: 7 min
CCL13_HUMAN
  RT: 290 min
CCL27_HUMAN
  RT: 4.14 min
CCL3_HUMAN [4]
  RT: 42.6 min
CCL5_HUMAN [5]
  RT: 113 min
CCL18_HUMAN
  RT: 185 min
CCL7_HUMAN [6]
  RT: 508 min
CCL15_HUMAN
  RT: 1.08 min
CCL24_HUMAN
  RT: 7.07 min
CCL3L1_HUMAN [7]
  IC50, THP1 cell migration: 1.17 nM
CCL2_HUMAN [8]
  IC50, THP1 cell migration: 4.78 nM
CCL8_HUMAN [9]
  IC50, THP1 cell migration: 2.1 nM
CCL3_HUMAN [10]
  IC50, THP1 cell migration: 2.9 nM
CCL5_HUMAN [11]
  IC50, THP1 cell migration: 1.84 nM
CCL7_HUMAN [12]
  IC50, THP1 cell migration: 6.51 nM

B2: P1156:G4S:P1243 (designed binder)
chain: ADDDNELFTVQYCGMNCTKDEGGTWTGCTGKKEGCKCYHESGKNYGLCLSTEYTDFSQYGNPSDSEIEAAKPKRSDTLSHGGGGSRNHTEDNSTEYYDYEEARCACPARHLNNTNGTVLKLLGCHYFCNGTLCTAPDGYPCYNLTAQQVRTLTTYPNTSCAVGVCMKGTCVKNGTMEQCFKTP
notes: also called two-warhead evasin
CCL5_HUMAN [13]
  binding result: binds
CXCL8_HUMAN
  binding result: binds
CXCL1_HUMAN
  binding result: binds
